Experimental data published in patent publication US20250340661A1, “ANTI CD40 ANTIBODY, ANTIGEN BINDING FRAGMENT AND MEDICAL USE THEREOF” (Jiangsu Hengrui Pharmaceuticals Co., Ltd., priority 2021, published 2025).

Columns and labels:
[1] = biological target: T1, Raji cell surface human CD40 (Homo sapiens, UniProt P25942); test: FACS binding of humanized anti-CD40 antibodies to Raji cells
T1 construct: Raji cells highly express human CD40 on the cell surface; endogenous in cells; host or cells: Raji cells (Burkitt lymphoma line)
T1 sequence (P25942 21-277): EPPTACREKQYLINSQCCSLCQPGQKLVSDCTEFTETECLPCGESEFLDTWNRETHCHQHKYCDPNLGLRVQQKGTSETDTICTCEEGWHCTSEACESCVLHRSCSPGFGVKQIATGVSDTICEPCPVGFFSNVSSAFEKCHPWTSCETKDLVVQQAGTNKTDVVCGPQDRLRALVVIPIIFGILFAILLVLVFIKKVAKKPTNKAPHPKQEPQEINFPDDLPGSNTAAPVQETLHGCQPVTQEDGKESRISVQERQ
Experimental: Raji cells highly express human CD40 on the cell surface and thus can be used to detect the binding of CD40 antagonistic antibodies to the cell surface human CD40.
Raji cells were plated at 1.5E5/well, and various concentrations of CD40 antagonistic antibodies were added. The plate was incubated at 4° C. for 1 h. After two washes with FACS buffer (PBS+2% FBS), a secondary antibody (Alexa Flour488 conjugated anti-human IgG (H+L) antibody) was added, and the plate was incubated at 4° C. for 0.5 h.
After two washes with FACS buffer, the fluorescence intensity on the cell surface was measured by flow cytometry (BD FACS Celesta).

[2] = biological target: CD40 (Homo sapiens, UniProt P25942); test: SPR (Biacore) affinity for human CD40; format: binding; parameters: h-CD40-his; Glu21-Arg193; P25942-1; His; purchased Acrobiosystems Inc. CD0-H5228; conditions: Human CD40 as mobile phase, antibody captured
Chain of CD40 (P25942 21-193): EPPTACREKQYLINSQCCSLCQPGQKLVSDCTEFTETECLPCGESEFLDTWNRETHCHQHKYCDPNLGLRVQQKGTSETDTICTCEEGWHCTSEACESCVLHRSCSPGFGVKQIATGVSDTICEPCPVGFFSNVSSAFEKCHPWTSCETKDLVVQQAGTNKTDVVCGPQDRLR
Experimental: The test antibody was affinity-captured on an anti-human Fc chip, and a series of concentrations of His-tagged human or cynomolgus monkey CD40 antigen were allowed to flow over the chip surface. Reaction signals were detected in real time using a Biacore instrument, and thus binding and dissociation curves were obtained. The buffer used in the experiment was HBS-EP+10× buffer solution (Cat. #BR-1006-69, GE) diluted to 1× (pH 7.4) with D. I. Water. Fitting was performed on the data obtained from the experiment using a (1:1) Binding model to obtain affinity values. 9E6-L4H2 and 2F12-L4H2 have similar binding constants for human CD40 to CFZ533, 9E6-L4H2 has a stronger binding affinity for cynomolgus monkey CD40, and 2F12-L4H2 has a slightly weak binding affinity for cynomolgus monkey CD40.

[3] = PK assay in human CD40 transgenic mice; format: in vivo, mouse; conditions: hCD40 transgenic mice, 10 mg/kg intraperitoneal, plasma
Description: The plate was washed three times with wash buffer.

CFZ533: anti-CD40 antagonistic antibody (iscalimab), positive control; variable regions from U.S. Pat. No. 8,277,810B [reference compound]
EC50 [1]: 1.01 nM
Ka [2]: 688000 M⁻¹ s⁻¹
AUC(0-d 14) [3]: 12655 (h)*(mg/L)
Cmax [3]: 75.95 µg/mL
T½ [3]: 214.8 h
